From the supplement of paper PMC6755084

B1: F1*; the commonest letter at each place (parent)
chain: GAGACCGCAACTGAAAAGTTGTTATCACTTGTCGTAAGACACTTTGGATGGGTTGAAGTTCTGCACGTAGAAGCAAAAGGC

Variants of: B1
Experiment: fraction ligated after 30 min (ligated reads / total reads); higher = more ligase activity
Conditions: with F1*sub RNA substrate (template-directed ligation), 42 °C
Summary of the method: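 The ligase ribozyme variants were produced by PCR amplification of oligo-pool templates, T7 transcription and purification on gel. Their ligated and unligated forms were gel-separated, then reverse transcribed with barcoded primers before MiSeq sequencing. Core bases were filtered at a quality of ≥20, and fraction ligated per variant was ligated reads over total reads.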

Variant	fraction ligated
G31C C42T	0.786
G31C C42G	0.79
G31C C42A	0.82
T30C G34T	0.787
T30C G34A	0.792
T30C G34C	0.746
G31A A56T	0.724
G31A A56C	0.161
G31A A56G	0.687
T30G T32G C33G G38C A39C A41C	0.862
G31C A48G	0.389
G31C A48C	0.242
G31C A48T	0.0135
T30C T32C C33G G38C A39G A41G	0.816
T30C G55C	0.504
T30C G55T	0.757
T30C G55A	0.81
G31A A39C	0.78
G31A A39G	0.795
G31A A39T	0.795
T30C A36C	0.801
T30C A36G	0.823
T30C A36T	0.816
T30C T45G	0.174

Variant	fraction ligated
T30C T45A	0.668
T30C T45C	0.475
T30G A36C	0.833
T30G A36G	0.872
T30G A36T	0.841
T30G G46T	0.785
T30G G46C	0.776
T30G G46A	0.791
G31T A48G	0.49
G31T A48C	0.292
G31T A48T	0.0299
G31C G38A	0.811
G31C G38T	0.819
G31C G38C	0.778
G31A T45A	0.395
G31A T45C	0.0954
G31A T45G	0.137
G31A C33A	0.833
G31A C33G	0.824
G31A C33T	0.829
T30C G50A	0.175
T30C G50C	0.107
T30C G50T	0.452
T30G T44C	0.808

Variant	fraction ligated
T30G T44A	0.831
T30G T44G	0.798
T30C T44A	0.807
T30C T44C	0.803
T30C T44G	0.812
G31A C40A	0.839
G31A C40T	0.831
G31A C40G	0.85
T30C G46T	0.78
T30C G46A	0.807
T30C G46C	0.759
G31A C42A	0.834
G31A C42T	0.839
G31A C42G	0.818
T30C G31C T32C A39G C40G A41G	0.867
T30A T45G	0.211
T30A T45C	0.746
T30A T45A	0.604
G31A T49C	0.136
G31A T49G	0.229
G31A T49A	0.214
T30G	0.843
T30C	0.807
T30G A48T	0.796

Variant	fraction ligated
T30G A48G	0.791
T30G A48C	0.761
T30C G31A	0.779
T30C G31C	0.789
T30C G31T	0.823
T30G C33T	0.867
T30G C33G	0.854
T30G C33A	0.86
G31T A57G	0.819
G31T A57T	0.78
G31T A57C	0.789
G31C A36T	0.79
G31C A36G	0.682
G31C A36C	0.357
T30G T32C C33G G38C A39G A41C	0.835
T30G T49A	0.739
T30G T49G	0.808
T30G T49C	0.526
T30G A57G	0.787
T30G A57T	0.828
T30G A57C	0.806
T30C G47T	0.358
T30C G47C	0.0928
T30C G47A	0.798

Variant	fraction ligated
T30G G31C T32G A39C C40G A41C	0.85
G31C C33T	0.777
G31C C33G	0.794
G31C C33A	0.798
T30A T49A	0.694
T30A T49C	0.467
T30A T49G	0.754
T30A T35G	0.827
T30A T35C	0.816
T30A T35A	0.839
T30C T35C	0.824
T30C T35G	0.795
T30C T35A	0.796
T30G T32C	0.784
T30G T32G	0.865
T30G T32A	0.883
T30G T45G	0.46
T30G T45C	0.803
T30G T45A	0.76
G31A A57C	0.819
G31A A57T	0.796
G31A A57G	0.851
T30G T32C A39G A41C	0.803
T30C A57C	0.777

Variant	fraction ligated
T30C A57T	0.769
T30C A57G	0.818
G31C A57G	0.807
G31C A57T	0.793
G31C A57C	0.788
G31A A48G	0.254
G31A A48C	0.322
G31A A48T	0.01
T30C A41G	0.828
T30C A41T	0.805
T30C A41C	0.752
T30G G31C T32C C33G G38C A39G C40G A41C	0.797
T30G T43G	0.795
T30G T43A	0.859
T30G T43C	0.794
T30A T32A	0.843
T30A T32C	0.768
T30A T32G	0.842
T30A T44C	0.828
T30A T44A	0.855
T30A T44G	0.825
G31A A41C	0.74
G31A A41T	0.81
G31A A41G	0.797

Variant	fraction ligated
T30C G31C T32C C33G G38C A39G C40G A41G	0.892
G31C T43A	0.807
G31C T43C	0.811
G31C T43G	0.761
T30C C40T	0.808
T30C C40G	0.828
T30C C40A	0.828
G31T A39G	0.754
G31T A39T	0.792
G31T A39C	0.769
G31A G47T	0.0708
G31A G47A	0.54
G31A G47C	0.0647
T30G A39T	0.779
T30G A39C	0.786
T30G A39G	0.841
T30C T49C	0.0166
T30C T49A	0.575
T30C T49G	0.485
G31C G47A	0.489
G31C G47C	0.0426
G31C G47T	0.0589
T30G T32G A39C A41C	0.845
